From PMC7793260, “MreC and MreD balance the interaction between the elongasome proteins PBP2 and RodA” (PLoS Genetics, 2020)

T1: mKO-PBP2^L61R (E. coli, UniProt P0AD65 1-633, L61R)
T1 construct: PBP2 of E. coli with L61R (hyperactive variant); made from pWA004 by mutagenesis PCR; also called hyperactive PBP2^L61R; source: E. coli LMC500, expressed from plasmid (15 uM IPTG), in fixed cells; not shown: mKO, N-terminal, kept
T1 sequence (looked up): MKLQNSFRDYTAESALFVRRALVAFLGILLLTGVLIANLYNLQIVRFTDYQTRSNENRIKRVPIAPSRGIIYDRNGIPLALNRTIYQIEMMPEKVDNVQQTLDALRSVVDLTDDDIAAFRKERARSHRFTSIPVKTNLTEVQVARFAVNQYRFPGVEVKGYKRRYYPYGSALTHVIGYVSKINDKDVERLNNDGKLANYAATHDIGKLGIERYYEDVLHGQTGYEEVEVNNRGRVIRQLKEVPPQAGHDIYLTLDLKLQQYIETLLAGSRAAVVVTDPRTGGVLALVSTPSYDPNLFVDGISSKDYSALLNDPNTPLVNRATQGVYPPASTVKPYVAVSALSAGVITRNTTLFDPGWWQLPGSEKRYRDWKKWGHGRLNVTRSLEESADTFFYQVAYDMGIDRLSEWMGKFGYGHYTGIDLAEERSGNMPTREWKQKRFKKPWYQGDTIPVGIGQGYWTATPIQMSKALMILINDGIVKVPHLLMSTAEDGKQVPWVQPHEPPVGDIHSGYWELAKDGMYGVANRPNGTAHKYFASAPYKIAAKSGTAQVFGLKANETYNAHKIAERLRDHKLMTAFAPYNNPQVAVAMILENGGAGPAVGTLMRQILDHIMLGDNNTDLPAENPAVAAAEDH

T2: RodA (wild type), fused to mCherry or to mKO (E. coli, UniProt P0ABG7 1-370)
T2 construct: RodA, peptidoglycan glycosyltransferase of the E. coli elongasome; wild-type rodA gene; mCh-RodA in all others; also called mCh-RodA; mKO-RodA; source: E. coli LMC500, expressed from plasmid (15 uM IPTG), in fixed cells; not shown: mCherry (acceptor construct, pSAV047-RodA) or mKO (donor construct, pXL56), N-terminal, kept
T2 sequence (looked up): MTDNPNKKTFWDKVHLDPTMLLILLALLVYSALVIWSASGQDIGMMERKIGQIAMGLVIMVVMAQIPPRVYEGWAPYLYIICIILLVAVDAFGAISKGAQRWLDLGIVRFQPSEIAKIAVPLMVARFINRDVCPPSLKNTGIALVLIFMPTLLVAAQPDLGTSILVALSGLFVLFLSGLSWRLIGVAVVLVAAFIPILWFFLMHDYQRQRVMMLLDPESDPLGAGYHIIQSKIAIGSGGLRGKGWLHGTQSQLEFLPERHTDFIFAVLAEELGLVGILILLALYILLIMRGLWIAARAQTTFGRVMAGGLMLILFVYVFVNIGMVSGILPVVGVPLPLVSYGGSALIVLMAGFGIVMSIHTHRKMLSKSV

B1: PBP2 (wild type), fused to mKO or to mCherry (enzyme, E. coli, UniProt P0AD65 1-633, looked up)
chain: MKLQNSFRDYTAESALFVRRALVAFLGILLLTGVLIANLYNLQIVRFTDYQTRSNENRIKLVPIAPSRGIIYDRNGIPLALNRTIYQIEMMPEKVDNVQQTLDALRSVVDLTDDDIAAFRKERARSHRFTSIPVKTNLTEVQVARFAVNQYRFPGVEVKGYKRRYYPYGSALTHVIGYVSKINDKDVERLNNDGKLANYAATHDIGKLGIERYYEDVLHGQTGYEEVEVNNRGRVIRQLKEVPPQAGHDIYLTLDLKLQQYIETLLAGSRAAVVVTDPRTGGVLALVSTPSYDPNLFVDGISSKDYSALLNDPNTPLVNRATQGVYPPASTVKPYVAVSALSAGVITRNTTLFDPGWWQLPGSEKRYRDWKKWGHGRLNVTRSLEESADTFFYQVAYDMGIDRLSEWMGKFGYGHYTGIDLAEERSGNMPTREWKQKRFKKPWYQGDTIPVGIGQGYWTATPIQMSKALMILINDGIVKVPHLLMSTAEDGKQVPWVQPHEPPVGDIHSGYWELAKDGMYGVANRPNGTAHKYFASAPYKIAAKSGTAQVFGLKANETYNAHKIAERLRDHKLMTAFAPYNNPQVAVAMILENGGAGPAVGTLMRQILDHIMLGDNNTDLPAENPAVAAAEDH
notes: PBP2, peptidoglycan transpeptidase of the E. coli elongasome, wild type; mKO-PBP2 in all others; also called mKO-PBP2^WT; mKO-PBP2; source: E. coli LMC500, expressed from plasmid (15 uM IPTG), in fixed cells; not shown: mKO (donor construct, pWA004) or mCherry (acceptor construct), N-terminal, kept

What was measured:
Assay in all cases: FRET or BRET; two-plasmid spectral FRET in E. coli LMC500 cells; mCherry fusion as acceptor, mKO fusion as donor; Gb4 medium, steady state at 28 C, 15 uM IPTG for two mass doublings, FAGA-fixed; acceptor FRET efficiency (EfA) by spectral unmixing
[1] = biological target: the molecule itself
[2] = biological target: T1, mKO-PBP2^L61R; conditions: partners not purified
[3] = biological target: B1; conditions: partners not purified
[4] = biological target: T2, RodA (wild type), fused to mCherry or …; conditions: partners not purified

Row | EfA (acceptor FRET efficiency) [3] | Binder | other results
1 | – | B1 | EfA (acceptor FRET efficiency) [1]: 9.2%
2 | 5.1% | mCh-MreC (natural protein, E. coli, UniProt P16926 1-367, looked up) MKPIFSRGPSLQIRLILAVLVALGIIIADSRLGTFSQIRTYMDTAVSPFYFVSNAPRELLDGVSQTLASRDQLELENRALRQELLLKNSELLMLGQYKQENARLRELLGSPLRQDEQKMVTQVISTVNDPYSDQVVIDKGSVNGVYEGQPVISDKGVVGQVVAVAKLTSRVLLICDATHALPIQVLRNDIRVIAAGNGCTDDLQLEHLPANTDIRVGDVLVTSGLGGRFPEGYPVAVVSSVKLDTQRAYTVIQARPTAGLQRLRYLLLLWGADRNGANPMTPEEVHRVANERLMQMMPQVLPSPDAMGPKLPEPATGIAQPTPQQPATGNAATAPAAPTQPAANRSPQRATPPQSGAQPPARAPGGQ | EfA (acceptor FRET efficiency) [2]: 5.3%
3 | 12.7% | mCh-RodA^Q207R (enzyme, E. coli, UniProt P0ABG7 1-370, looked up) MTDNPNKKTFWDKVHLDPTMLLILLALLVYSALVIWSASGQDIGMMERKIGQIAMGLVIMVVMAQIPPRVYEGWAPYLYIICIILLVAVDAFGAISKGAQRWLDLGIVRFQPSEIAKIAVPLMVARFINRDVCPPSLKNTGIALVLIFMPTLLVAAQPDLGTSILVALSGLFVLFLSGLSWRLIGVAVVLVAAFIPILWFFLMHDYRRQRVMMLLDPESDPLGAGYHIIQSKIAIGSGGLRGKGWLHGTQSQLEFLPERHTDFIFAVLAEELGLVGILILLALYILLIMRGLWIAARAQTTFGRVMAGGLMLILFVYVFVNIGMVSGILPVVGVPLPLVSYGGSALIVLMAGFGIVMSIHTHRKMLSKSV | –
4 | 12.5% | mCh-RodA^R109A (enzyme, E. coli, UniProt P0ABG7 1-370, looked up) MTDNPNKKTFWDKVHLDPTMLLILLALLVYSALVIWSASGQDIGMMERKIGQIAMGLVIMVVMAQIPPRVYEGWAPYLYIICIILLVAVDAFGAISKGAQRWLDLGIVAFQPSEIAKIAVPLMVARFINRDVCPPSLKNTGIALVLIFMPTLLVAAQPDLGTSILVALSGLFVLFLSGLSWRLIGVAVVLVAAFIPILWFFLMHDYQRQRVMMLLDPESDPLGAGYHIIQSKIAIGSGGLRGKGWLHGTQSQLEFLPERHTDFIFAVLAEELGLVGILILLALYILLIMRGLWIAARAQTTFGRVMAGGLMLILFVYVFVNIGMVSGILPVVGVPLPLVSYGGSALIVLMAGFGIVMSIHTHRKMLSKSV | –
5 | – | mCh-MreB^SW (natural protein, E. coli, UniProt P0A9X4 1-347, looked up, MreB of E. coli with mCherry inserted inside the chain (sandwich fusion); also called sandwich fusion of MreB-mCherry-MreB; source: E. coli LMC500, expressed from plasmid (15 uM IPTG), in fixed cells) MLKKFRGMFSNDLSIDLGTANTLIYVKGQGIVLNEPSVVAIRQDRAGSPKSVAAVGHDAKQMLGRTPGNIAAIRPMKDGVIADFFVTEKMLQHFIKQVHSNSFMRPSPRVLVCVPVGATQVERRAIRESAQGAGAREVFLIEEPMAAAIGAGLPVSEATGSMVVDIGGGTTEVAVISLNGVVYSSSVRIGGDRFDEAIINYVRRNYGSLIGEATAERIKHEIGSAYPGDEVREIEVRGRNLAEGVPRGFTLNSNEILEALQEPLTGIVSAVMVALEQCPPELASDISERGMVLTGGGALLRNLDRLLMEETGIPVVVAEDPLTCVARGGGKALEMIDMHGGDLFSEE | EfA (acceptor FRET efficiency) [4]: 7.2%
